This experiment in a line: SPR affinity of His-tagged PikAIII ACPdd for nickel-NTA sensor chip. The class given is binding. The settings on record: BIAcore 3000, nickel-loaded NTA sensor chip, HBS-P+E pH 7.4.

B1: His-tagged PikAIII ACPdd: C-terminal (ACP-side) docking domain of PikAIII, pikromycin PKS (protein)
chain: LAPAEPAPTDWEGRVRRALAELPLDRLRDAGVLDTVLRLTGIEPEPGSGGSDGGAADPGAEPEASIDDLDAEALIRMALGPRNT
modifications: left off: His6, N-terminal, kept
Molecule B1 gave a Kd of 4 ± 0.04 nM.

The values are drawn from PMC2853223 (ACS chemical biology, 2009).
